The supplement of paper PMC10724198

Assays:
[1] = test system: Saccharomyces cerevisiae; assay: protein stability index of tFT-peptide fusion in deletion strain of DOA10 (PSI (0-1 scale)); higher = more stable (slower turnover)
Experimental: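 MPS profiling in S. cerevisiae of two library types built from selected 12-aa C-degron peptides (IN1, IN2, LN1, LN3, VN2, R1-R5, W1-W3, Atg1 and Rpa12 C-termini): saturation mutagenesis libraries and C-terminal +1 capping libraries (13 aa). Each peptide is fused to the C-terminus of a sfGFP-mCherry timer, after a GGGS linker. Cells are FACS-sorted into 8 mCherry/sfGFP bins and sequenced. PSI runs from 0 (unstable) to 1 (stable), measured once in wild type and in the das1Δ or doa10Δ background.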

[2] = test system: Saccharomyces cerevisiae; assay: protein stability index of tFT-peptide fusion in wild type (PSI (0-1 scale)); higher = more stable (slower turnover); conditions: genetic background: wild type
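Throughout, for protein stability index of tFT-peptide fusion in deletion strain of DOA10: PSI per variant is the weighted mean of its sequencing read distribution over the sorted stability bins, counting only variants with over 10 reads summed across bins.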
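Throughout, for protein stability index of tFT-peptide fusion in wild type: PSI derived as read-weighted mean over the 8 sorting bins, only variants exceeding 10 total reads kept, mCherry placed adjacent to the peptide and sfGFP distal.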

Sequence | protein stability index [1] | protein stability index [2]
SSLRVLLPLYFR | 0.679 | 0.252
AITLPMCWLLLR | 0.736 | 0.0817
GLYQCSVGCWFR | 0.676 | 0.434
MSLRVLLPLYFR | 0.622 | 0.314
RSLAVLLPLYFR | 0.68 | 0.34
VLVSLPILLFFR | 0.56 | 0.0972
GLYYCSVGCWFR | 0.605 | 0.249
RSLRVLLPLTFR | 0.671 | 0.379
RSLRVLLPLYFRV | 0.441 | 0.164
GLYMCSVGCTFR | 0.64 | 0.609
RVTRLDWIYFRI | 0.495 | 0.164
RSLRVLLHLYFR | 0.605 | 0.254
RLTRLDAIYFRI | 0.663 | 0.379
RVLRVLLPLYFR | 0.634 | 0.369
RSLRVLLPLYIR | 0.596 | 0.255
AITLPMCPYLLR | 0.675 | 0.545
CSLRVLLPLYFR | 0.622 | 0.0975
AITSPMCPLLLR | 0.672 | 0.491
VVTRLDAIYFRI | 0.671 | 0.302
RSLRVLLLLYFR | 0.432 | 0.217
AITLPMCPLLLRN | 0.659 | 0.281
RVTRLDAIYVRI | 0.635 | 0.469
AITLPTCPLLLR | 0.681 | 0.289
RVTRLDNIYFRI | 0.702 | 0.484

Sequence | protein stability index [1] | protein stability index [2]
ALYMCSVGCWFR | 0.638 | 0.351
AIFLPMCPLLLR | 0.631 | 0.278
RSLRVLLPLYFL | 0.516 | 0.319
GLYMCSVICWFR | 0.314 | 0.231
RSLRVQLPLYFR | 0.685 | 0.136
AITLGMCPLLLR | 0.661 | 0.373
RVTRLDAIYFRIP | 0.371 | 0.247
AIVLPMCPLLLR | 0.623 | 0.229
GLYMCSVLCWFR | 0.369 | 0.274
CLVSSPILLFFR | 0.645 | 0.272
CLVSLPIHLFFR | 0.669 | 0.0666
GLLMCSVGCWFR | 0.409 | 0.22
AITLPMCPLFLR | 0.67 | 0.184
RSLRVLLPGYFR | 0.673 | 0.624
RVTRLQAIYFRI | 0.402 | 0.202
CLPSLPILLFFR | 0.632 | 0.0469
RILRVLLPLYFR | 0.654 | 0.386
RVTRLDAIYFRIG | 0.408 | 0.335
AITLPQCPLLLR | 0.661 | 0.293
GLYMCSVGAWFR | 0.667 | 0.451
CLVSLPILLHFR | 0.655 | 0.286
RCTRLDAIYFRI | 0.674 | 0.46
CLVKLPILLFFR | 0.6 | 0.06
DLYMCSVGCWFR | 0.697 | 0.453

Sequence | protein stability index [1] | protein stability index [2]
RRLRVLLPLYFR | 0.668 | 0.292
GLYMCSNGCWFR | 0.703 | 0.397
RSRRVLLPLYFR | 0.702 | 0.297
RYLRVLLPLYFR | 0.659 | 0.335
RVTRLDFIYFRI | 0.596 | 0.171
CLVSLPILFFFR | 0.59 | 0.499
CLVSLPIMLFFR | 0.607 | 0.0325
GLYMISVGCWFR | 0.341 | 0.17
CLVSLPILLSFR | 0.631 | 0.187
RVTRLDAIYFRIV | 0.114 | 0.0601
RSLRVLLTLYFR | 0.511 | 0.391
AITLPYCPLLLR | 0.666 | 0.18
GLYMCAVGCWFR | 0.54 | 0.279
GLYMCCVGCWFR | 0.504 | 0.303
AIHLPMCPLLLR | 0.65 | 0.278
RVTRIDAIYFRI | 0.693 | 0.337
RVTQLDAIYFRI | 0.685 | 0.524
GDYMCSVGCWFR | 0.692 | 0.462
ANTLPMCPLLLR | 0.649 | 0.442
RSLRVLLPDYFR | 0.672 | 0.64
GLWMCSVGCWFR | 0.54 | 0.315
RVQRLDAIYFRI | 0.666 | 0.426
YLVSLPILLFFR | 0.538 | 0.0822
RVTRLDAINFRI | 0.729 | 0.683

Sequence | protein stability index [1] | protein stability index [2]
RVTRLDIIYFRI | 0.645 | 0.271
RSLRVLLPLYWR | 0.658 | 0.301
GLYMCSVGCWDR | 0.665 | 0.627
QSLRVLLPLYFR | 0.659 | 0.283
AITLQMCPLLLR | 0.619 | 0.3
CLVSLPSLLFFR | 0.667 | 0.0935
GNYMCSVGCWFR | 0.699 | 0.405
RVCRLDAIYFRI | 0.638 | 0.403
RVTRLDAIYFPI | 0.731 | 0.703
GLYMCSPGCWFR | 0.679 | 0.246
CLVFLPILLFFR | 0.416 | 0.0802
CLVSLPILWFFR | 0.61 | 0.566
RSSRVLLPLYFR | 0.699 | 0.346
GLYMCSVGCWFY | 0.52 | 0.398
AITGPMCPLLLR | 0.666 | 0.497
CLVSLPILVFFR | 0.512 | 0.0876
CLVSLPILHFFR | 0.667 | 0.628
RSLRVLLPLYFRH | 0.616 | 0.284
AITLWMCPLLLR | 0.611 | 0.267
RSPRVLLPLYFR | 0.681 | 0.334
RVTRLGAIYFRI | 0.634 | 0.317
GLYMCSVSCWFR | 0.446 | 0.338
RSLRVALPLYFR | 0.675 | 0.189
AITLNMCPLLLR | 0.662 | 0.261

Sequence | protein stability index [1] | protein stability index [2]
GLYMCSVGCIFR | 0.637 | 0.587
GLYSCSVGCWFR | 0.676 | 0.451
GLPMCSVGCWFR | 0.699 | 0.267
RSLRVLLPLYFRF | 0.584 | 0.195
AITKPMCPLLLR | 0.651 | 0.458
CLVSLPKLLFFR | 0.662 | 0.0835
RVTRVDAIYFRI | 0.68 | 0.442
CLVSLMILLFFR | 0.398 | 0.256
GLYMCSVGCFFR | 0.632 | 0.408
MITLPMCPLLLR | 0.626 | 0.302
RVTRLDAIYFRP | 0.697 | 0.643
CLVSLPIVLFFR | 0.581 | 0.0839
GLYMCSCGCWFR | 0.674 | 0.46
RVTRLDALYFRI | 0.705 | 0.32
CLVSLPELLFFR | 0.692 | 0.176
RSLRVLLPLYPR | 0.69 | 0.65
ELVSLPILLFFR | 0.633 | 0.0794
CLVSLPIPLFFR | 0.643 | 0.0774
AITLPMCPLLLN | 0.189 | 0.135
CLTSLPILLFFR | 0.636 | 0.0745
GAYMCSVGCWFR | 0.686 | 0.427
